# Source: patent US20220332824A1 (published 2022)
# Legend:
# human PD-1 = human PD-1 (human, UniProt Q15116 25-288); test: FACS binding, CHO-K1 cells expressing human PD-1
# CD47 = CD47 (UniProt Q08722 19-323); test: FACS
# Sequence of CD47 (Q08722 19-323): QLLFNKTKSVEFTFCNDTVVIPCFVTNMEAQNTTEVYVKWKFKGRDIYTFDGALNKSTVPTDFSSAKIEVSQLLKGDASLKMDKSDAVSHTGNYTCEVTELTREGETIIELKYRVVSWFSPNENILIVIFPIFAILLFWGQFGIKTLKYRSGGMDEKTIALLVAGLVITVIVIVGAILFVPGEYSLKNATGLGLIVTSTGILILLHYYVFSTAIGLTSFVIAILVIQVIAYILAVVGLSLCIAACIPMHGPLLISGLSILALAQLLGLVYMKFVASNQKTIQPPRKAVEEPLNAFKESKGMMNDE
# Sequence of human PD-1 (Q15116 25-288): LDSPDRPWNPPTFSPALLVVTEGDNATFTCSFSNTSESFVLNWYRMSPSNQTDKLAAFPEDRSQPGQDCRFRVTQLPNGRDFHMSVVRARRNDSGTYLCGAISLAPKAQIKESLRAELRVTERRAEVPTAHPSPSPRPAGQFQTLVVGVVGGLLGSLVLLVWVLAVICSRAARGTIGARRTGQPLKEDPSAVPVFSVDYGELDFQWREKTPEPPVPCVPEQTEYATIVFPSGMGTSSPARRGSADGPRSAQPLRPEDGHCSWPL
EC50 (human PD-1),EC50 (CD47),Binder
3.69 nM,,bispecific antibody PD1a-E-LN (bispecific antibody) heavy: not shown light: EVQLVESGGGLVQPGGSLRLSCAVSGNIYNRNFMGWFRQAPGKGREGVSAIYTGTSRTYYADSVKGRFTISRDNAKNTVYLQMNSLRPEDTAVYYCAADLRDGFWDTGVWNTWGQGTLVTVSSEPKSSDKTHTSPPSPEIVLTQSPATLSLSPGERATLSCRASENVGTYISWYQQKPGQAPRLLIYGASNRYTGIPARFSGSGSGTDFTLTISSLEPEDFAVYYCGESYGHLYTFGGGTKVEIKRTVAAPSVFIFPPSDEQLKSGTASVVCLLNNFYPREAKVQWKVDNALQSGNSQESVTEQDSKDSTYSLSSTLTLSKADYEKHKVYACEVTHQGLSSPVTKSFNRGEC
3.02 nM,,bispecific antibody PD1b-E-LN (bispecific antibody) heavy: not shown light: EVQLVESGGGLVQPGGSLRLSCAVSGNIYNRNFMGWFRQAPGKGLEGVSAIYTGTSRTYYADSVKGRFTISRDNSKNTVYLQMNSLRAEDTAVYYCAADLREGFWDTGVWNTWGQGTLVTVSSEPKSSDKTHTSPPSPEIVLTQSPATLSLSPGERATLSCRASENVGTYISWYQQKPGQAPRLLIYGASNRYTGIPARFSGSGSGTDFTLTISSLEPEDFAVYYCGESYGHLYTFGGGTKVEIKRTVAAPSVFIFPPSDEQLKSGTASVVCLLNNFYPREAKVQWKVDNALQSGNSQESVTEQDSKDSTYSLSSTLTLSKADYEKHKVYACEVTHQGLSSPVTKSFNRGEC
~4.44 nM,1.46 nM,"anti-CD47 monoclonal antibody (heavy chain H0 and light chain L0) (antibody, V domains shown) VH: EVQLVQSGAEVKKPGSSVKVSCKASGYSFTHHWIHWVRQAPGQGLEWMGMIDASDSETRLSQKFKDRVTITADKSTSTAYMELSSLRSEDTAVYYCARLGRYYFDYWGQGTTVTVSS VL: EIVLTQSPATLSLSPGERATLSCRASENVGTYISWYQQKPGQAPRLLIYGASNRYTGIPARFSGSGSGTDFTLTISSLEPEDFAVYYCGESYGHLYTFGGGTKVEIKR"
2.82 nM,1.78 nM,bispecific antibody PD1b-E-HN (bispecific antibody) heavy: not shown light: EIVLTQSPATLSLSPGERATLSCRASENVGTYISWYQQKPGQAPRLLIYGASNRYTGIPARFSGSGSGTDFTLTISSLEPEDFAVYYCGESYGHLYTFGGGTKVEIKRTVAAPSVFIFPPSDEQLKSGTASVVCLLNNFYPREAKVQWKVDNALQSGNSQESVTEQDSKDSTYSLSSTLTLSKADYEKHKVYACEVTHQGLSSPVTKSFNRGEC
3.25 nM,0.804 nM,bispecific antibody PD1b-E-HC (bispecific antibody) heavy: not shown light: EIVLTQSPATLSLSPGERATLSCRASENVGTYISWYQQKPGQAPRLLIYGASNRYTGIPARFSGSGSGTDFTLTISSLEPEDFAVYYCGESYGHLYTFGGGTKVEIKRTVAAPSVFIFPPSDEQLKSGTASVVCLLNNFYPREAKVQWKVDNALQSGNSQESVTEQDSKDSTYSLSSTLTLSKADYEKHKVYACEVTHQGLSSPVTKSFNRGEC
4.75 nM,0.968 nM,bispecific antibody PD1a-G15-HC (bispecific antibody) heavy: not shown light: EIVLTQSPATLSLSPGERATLSCRASENVGTYISWYQQKPGQAPRLLIYGASNRYTGIPARFSGSGSGTDFTLTISSLEPEDFAVYYCGESYGHLYTFGGGTKVEIKRTVAAPSVFIFPPSDEQLKSGTASVVCLLNNFYPREAKVQWKVDNALQSGNSQESVTEQDSKDSTYSLSSTLTLSKADYEKHKVYACEVTHQGLSSPVTKSFNRGEC
4.15 nM,1.41 nM,bispecific antibody PD1a-E-HN (bispecific antibody) heavy: not shown light: EIVLTQSPATLSLSPGERATLSCRASENVGTYISWYQQKPGQAPRLLIYGASNRYTGIPARFSGSGSGTDFTLTISSLEPEDFAVYYCGESYGHLYTFGGGTKVEIKRTVAAPSVFIFPPSDEQLKSGTASVVCLLNNFYPREAKVQWKVDNALQSGNSQESVTEQDSKDSTYSLSSTLTLSKADYEKHKVYACEVTHQGLSSPVTKSFNRGEC
2.6 nM,1.09 nM,bispecific antibody PD1a-E-HC (bispecific antibody) heavy: not shown light: EIVLTQSPATLSLSPGERATLSCRASENVGTYISWYQQKPGQAPRLLIYGASNRYTGIPARFSGSGSGTDFTLTISSLEPEDFAVYYCGESYGHLYTFGGGTKVEIKRTVAAPSVFIFPPSDEQLKSGTASVVCLLNNFYPREAKVQWKVDNALQSGNSQESVTEQDSKDSTYSLSSTLTLSKADYEKHKVYACEVTHQGLSSPVTKSFNRGEC
7.74 nM,,bispecific antibody PD1a-E-LC (bispecific antibody) heavy: not shown light: EIVLTQSPATLSLSPGERATLSCRASENVGTYISWYQQKPGQAPRLLIYGASNRYTGIPARFSGSGSGTDFTLTISSLEPEDFAVYYCGESYGHLYTFGGGTKVEIKRTVAAPSVFIFPPSDEQLKSGTASVVCLLNNFYPREAKVQWKVDNALQSGNSQESVTEQDSKDSTYSLSSTLTLSKADYEKHKVYACEVTHQGLSSPVTKSFNRGECEPKSSDKTHTSPPSPEVQLVESGGGLVQPGGSLRLSCAVSGNIYNRNFMGWFRQAPGKGREGVSAIYTGTSRTYYADSVKGRFTISRDNAKNTVYLQMNSLRPEDTAVYYCAADLRDGFWDTGVWNTWGQGTLVTVSS
2.34 nM,,bispecific antibody PD1b-E-LC (bispecific antibody) heavy: not shown light: EIVLTQSPATLSLSPGERATLSCRASENVGTYISWYQQKPGQAPRLLIYGASNRYTGIPARFSGSGSGTDFTLTISSLEPEDFAVYYCGESYGHLYTFGGGTKVEIKRTVAAPSVFIFPPSDEQLKSGTASVVCLLNNFYPREAKVQWKVDNALQSGNSQESVTEQDSKDSTYSLSSTLTLSKADYEKHKVYACEVTHQGLSSPVTKSFNRGECEPKSSDKTHTSPPSPEVQLVESGGGLVQPGGSLRLSCAVSGNIYNRNFMGWFRQAPGKGLEGVSAIYTGTSRTYYADSVKGRFTISRDNSKNTVYLQMNSLRAEDTAVYYCAADLREGFWDTGVWNTWGQGTLVTVSS
